The results in this text go back to patent publication US20200190168A1 (US Dept. of Health and Human Services, published 2020).

The target of assay [1] is T1, gp350 B95-8 (2-425) D296R Avi-His (Epstein Barr Virus (B95-8), UniProt P03200 2-425).
T1 construct: also called D296R gp350 probe; D296R mutant
Briefly: flow cytometry staining of IgG+ B cells in human PBMCs, co-stained with anti-CD21. (In flow cytometry, cells or beads pass a laser one at a time.)

The target of assay [2] is T2, gp350 B95-8 (2-425) D296R/I160R Avi-His (Epstein Barr Virus (B95-8), UniProt P03200 2-425).
T2 construct: also called gp350 D296R/I160R probe
Described as above.

The target of assay [3] is T2, gp350 B95-8 (2-425) D296R/I160R Avi-His. Briefly: biolayer interferometry (Octet), CR2-Ig on protein A biosensors.
For assay [4], the target named is gp350 B95-8 (2-425) D296R/P158R Avi-His (Epstein Barr Virus (B95-8), UniProt P03200 2-425). The description is as above.
Assay [5] addresses T3, gp350 B95-8 (2-425) D296R/P158N*/I160T Avi-His (Epstein Barr Virus (B95-8), UniProt P03200 2-425).
T3 construct: also called D296R/P158N/I160T (glycan addition at 158)
The description is as above.

The target of assay [6] is gp350 B95-8 (2-425) D296R/P158R/I160R Avi-His (Epstein Barr Virus (B95-8), UniProt P03200 2-425). The assay is described as above.

B1: CR2 (complement receptor 2, CD21) on IgG+ B cells of human PBMCs (receptor)
chain: ISCGSPPPILNGRISYYSTPIAVGTVIRYSCSGTFRLIGEKSLLCITKDKVDGTWDKPAPKCEYFNKYSSCPEPIVPGGYKIRGSTPYRHGDSVTFACKTNFSMNGNKSVWCQANNMWGPTRLPTCVSVFPLECPALPMIHNGHHTSENVGSIAPGLSVTYSCESGYLLVGEKIINCLSSGKWSAVPPTCEEARCKSLGRFPNGKVKEPPILRVGVTANFFCDEGYRLQGPPSSRCVIAGQGVAWTKMPVCEEIFCPSPPPILNGRHIGNSLANVSYGSIVTYTCDPDPEEGVNFILIGESTLRCTVDSQKTGTWSGPAPRCELSTSAVQCPHPQILRGRMVSGQKDRYTYNDTVIFACMFGFTLKGSKQIRCNAQGTWEPSAPVCEKECQAPPNILNGQKEDRHMVRFDPGTSIKYSCNPGYVLVGEESIQCTSEGVWTPPVPQCKVAACEATGRQLLTKPQHQFVRPDVNSSCGEGYKLSGSVYQECQGTIPWFMEIRLCKEITCPPPPVIYNGAHTGSSLEDFPYGTTVTYTCNPGPERGVEFSLIGESTIRCTSNDQERGTWSGPAPLCKLSLLAVQCSHVHIANGYKISGKEAPYFYNDTVTFKCYSGFTLKGSSQIRCKADNTWDPEIPVCEKETCQHVRQSLQELPAGSRVELVNTSCQDGYQLTGHAYQMCQDAENGIWFKKIPLCKVIHCHPPPVIVNGKHTGMMAENFLYGNEVSYECDQGFYLLGEKKLQCRSDSKGHGSWSGPSPQCLRSPPVTRCPNPEVKHGYKLNKTHSAYSHNDIVYVDCNPGFIMNGSRVIRCHTDNTWVPGVPTCIKKAFIGCPPPPKTPNGNHTGGNIARFSPGMSILYSCDQGYLLVGEALLLCTHEGTWSQPAPHCKEVNCSSPADMDGIQKGLEPRKMYQYGAVVTLECEDGYMLEGSPQSQCQSDHQWNPPLAVCRSRSLAPVLCGIAAGLILLTFLIVITLYVISKHRARNYYTDTSQKEAFHLEAREVYSVDPYNPAS
notes: whole, on cells; also called gp350 receptor
With B1, the binding result is “binds” in assay [1] and “no binding” in assay [2].

B2: CR2-Ig (chimeric molecule of CR2 SCR1-2 domain and IgG Fc region) (Fc fusion)
chain: ISCGSPPPILNGRISYYSTPIAVGTVIRYSCSGTFRLIGEKSLLCITKDKVDGTWDKPAPKCEYFNKYSSCPEPIVPGGYKIRGSTPYRHGDSVTFACKTNFSMNGNKSVWCQANNMWGPTRLPTCVSVFPLE
notes: domain: SCR1-2; not shown: IgG Fc region
Regarding B2, the binding result in assay [3], in assay [4], in assay [5] and in assay [6] was “no binding” throughout.
